Experimental data as given in patent publication US20240018252A1.

Target: cynomolgus BCMA (cynomolgus (given as cyBCMA, Cyno))
Experiment: SPR, IgG immobilized, cyno BCMA analyte, 37 C

Chain of cynomolgus BCMA (cynomolgus (given as cyBCMA, Cyno)) (chain, as listed by the source): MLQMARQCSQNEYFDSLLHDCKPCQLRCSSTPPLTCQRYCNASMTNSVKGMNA

| Kd [nM] | koff [s⁻¹] | kon [M⁻¹ s⁻¹] | Binder |
| --- | --- | --- | --- |
| 0.058 | 0.000105 | 1.81e+06 | A02_Rd4_0.6nM_C06 (antibody, V domains shown) VH: EVQLLESGGGLVQPGGSLRLSCAASGFTFSSYAMNWVRQAPGKGLEWVSAISDSGGSAWYADSVKGRFTISRDNSKNTLYLQMNSLRAEDTAVYYCARYWPMSLWGQGTLVTVSS VL: EIVLTQSPGTLSLSPGERATLSCRASQSVSVLYLAWYQQKPGQAPRLLMYDASIRATGIPDRFSGSGSGTDFTLTISRLEPEDFAVYYCQQYQRWPLTFGQGTKVEIK |
| 0.381 | 0.000831 | 2.18e+06 | A02_Rd4_6nM_C04 (antibody, V domains shown) VH: EVQLLESGGGLVQPGGSLRLSCAASGFTFSSYAMNWVRQAPGKGLEWVSAIMSSGGPLYYADSVKGRFTISRDNSKNTLYLQMNSLRAEDTAVYYCARYWPMALWGQGTLVTVSS VL: EIVLTQSPGTLSLSPGERATLSCRASQSVSALYLAWYQQKPGQAPRLLMYDASIRATGIPDRFSGSGSGTDFTLTISRLEPEDFAVYYCQQYQVWPLTFGQGTKVEIK |
| 0.197 | 0.000639 | 3.24e+06 | A02_Rd4_0.6nM_C18 (antibody, V domains shown) VH: EVQLLESGGGLVQPGGSLRLSCAASGFTFSSYAMNWVRQAPGKGLEWVSAVLDSGGSTYYADSVKGRFTISRDNSKNTLYLQMNSLRAEDTAVYYCARYWPMSLWGQGTLVTVSS VL: EIVLTQSPGTLSLSPGERATLSCRASQSVSELYLAWYQQKPGQAPRLLMYDASIRATGIPDRFSGSGSGTDFTLTISRLEPEDFAVYYCQQYFGWPLTFGQGTKVEIK |
| 0.26 | 0.000661 | 2.54e+06 | A02_Rd4_6nM_C19 (antibody, V domains shown) VH: EVQLLESGGGLVQPGGSLRLSCAASGFTFSSYAMNWVRQAPGKGLEWVSAISDSGGSRWYADSVKGRFTISRDNSKNTLYLQMNSLRAEDTAVYYCARYWPMSDWGQGTLVTVSS VL: EIVLTQSPGTLSLSPGERATLSCRASQSVSVLYLAWYQQKPGQAPRLLMYDASIRATGIPDRFSGSGSGTDFTLTISRLEPEDFAVYYCQQYLAWPLTFGQGTKVEIK |
| 5.07 | 0.0113 | 2.23e+06 | A02_Rd4_6nM_C08 (antibody, V domains shown) VH: EVQLLESGGGLVQPGGSLRLSCAASGFTFSSYAMNWVRQAPGKGLEWVSAILDSGGSTYYADSVKGRFTISRDNSKNTLYLQMNSLRAEDTAVYYCARYWPMSPWGQGTLVTVSS VL: EIVLTQSPGTLSLSPGERATLSCRASQSVSFLYLAWYQQKPGQAPRLLMYDASIRATGIPDRFSGSGSGTDFTLTISRLEPEDFAVYYCQQYGSWPLTFGQGTKVEIK |
